In the supplement of paper PMC12042874 one finds amyloid nucleation score data, which are given here for 96 substances.

± gives the uncertainty stated by the source.

A short description of this data set: amyloid nucleation score (Sup35N fusion, yeast selection) (log enrichment); library NNK3; higher = more nucleation; inactive = no reads after selection. The method in brief:
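On medium lacking adenine and uracil, psi-negative yeast expressing peptides of 20 random codons fused to Sup35N were grown 7 days at 30°C after a 24-hour induction with 100 μM copper sulfate. Illumina sequencing of input and output plasmid inserts gave the reads, and sequences under 100 input reads were excluded. The nucleation score is the DiMSum log enrichment of output over input reads, centred on the mode score of non-aggregating sequences.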
Regarding CAISLVRLTVQSEEIRVDRN, the amyloid nucleation score result was “inactive”.

Substance YMSFFIFIPIFLCVNLDRVC gave an amyloid nucleation score of 2.38 ± 0.061.

In the case of SMNTHGCFYRRYLSESPFEC, the amyloid nucleation score entry is “inactive”.

In the case of NNIIVVKTAS, the amyloid nucleation score result is “inactive”.

On to EEVSVA, for which the amyloid nucleation score entry is “inactive”.

Consider LCITIVSRWVVGVFHQMFYT, for which the amyloid nucleation score is -0.219 ± 0.68.

Regarding NYDERCV, the amyloid nucleation score was -0.363 ± 0.98.

Consider FSVRIKYI, for which the amyloid nucleation score result is “inactive”.

As to FKGLVVMKGLLNMIGGGACH, the amyloid nucleation score was 0.27 ± 0.4.

Turning to CLWFISRQFDLYHRVMGNRS, the amyloid nucleation score entry is “inactive”.

As for VYNRRYKSNRNIYSHGNRLK, the amyloid nucleation score is 1.54 ± 0.1.

With TVDMSKPGYIWFSSDRSRYW, the amyloid nucleation score entry is “inactive”.

With LYMNATLSYCGTYCMVTQMV, the amyloid nucleation score entry was “inactive”.

Consider RTFWNSYWTGMVLRADWIMR, for which the amyloid nucleation score entry is “inactive”.

Consider FHNVGLI, for which the amyloid nucleation score amounted to 1.77 ± 0.093.

As for SIQRICMYLKGESCTRVYHS, the amyloid nucleation score result was “inactive”.

On to SFIKRVRDSMSRM, for which the amyloid nucleation score result is “inactive”.

Take SLMNHLSGTKVMLGRLRYSN: the amyloid nucleation score result was “inactive”.

As to KDALISYFYYDCMHCPQASR, the amyloid nucleation score entry was “inactive”.

Consider VVSSFMMLVYMNLLNFSNVE, for which the amyloid nucleation score entry is “inactive”.

In the case of VLYSCERKELVIGMKVLVWE, the amyloid nucleation score entry is “inactive”.

Consider CELAKLVRNDSFRKDNQGYS, for which the amyloid nucleation score entry is “inactive”.

Regarding EGCSVRRTTHRAQVMRVGWM, the amyloid nucleation score entry is “inactive”.

In the case of NVAAFGVAMPGMSV, the amyloid nucleation score entry was “inactive”.

Turning to VRVRVHVVVVVKLLKMVGAV, the amyloid nucleation score result is “inactive”.

VFCAGLFDTMCCSDGASVEV showed an amyloid nucleation score of 1.16 ± 0.095.

As for CFNGRCARLYISIIQVIELS, the amyloid nucleation score result was “inactive”.

On to ADKWSHGAHDRVVLVLRVCR, for which the amyloid nucleation score result was “inactive”.

With SCKFITFRGGQVQLVNDEGM, the amyloid nucleation score entry was “inactive”.

For the substance GCKTREVLLYWLIMRPGGYS, the amyloid nucleation score entry is “inactive”.

For the substance NFFMGLLSSRSMGLTWYWCM, the amyloid nucleation score result is “inactive”.

Take DKGQRVNSSGRVCNMNMGYW: the amyloid nucleation score result is “inactive”.

In turn, CSGISSNGGLLTLGCCFCRG registered an amyloid nucleation score of 2.96 ± 0.076.

As to MSFMTDLNPTFLFMLIG, the amyloid nucleation score entry was “inactive”.

In the case of YGLVLGFRRTGYTCDDSLNW, the amyloid nucleation score result is “inactive”.

TSKREWLMRNYAHCTNFDGR: the amyloid nucleation score result is “inactive”.

As to TIAHYTVP, the amyloid nucleation score entry was “inactive”.

SKVPYPNLVTCVVLCVGFYV: the amyloid nucleation score result was “inactive”.

As for VNYRSNIFNHYCSFSRN, the amyloid nucleation score came to 0.934 ± 0.11.

For the substance FLDPYSHRLSAKALYM, the amyloid nucleation score result was “inactive”.

On to FNMFVKNN, for which the amyloid nucleation score result is “inactive”.

For DAFRSSYWIICMTEAHLYKF, the amyloid nucleation score result was “inactive”.

Turning to RLCHRWFLDRLTICY, the amyloid nucleation score entry was “inactive”.

For the substance FQIKT, the amyloid nucleation score came out at 0.041 ± 0.81.

Take FSCPDLGRGYVIS: the amyloid nucleation score result is “inactive”.

LLLTSVL: the amyloid nucleation score entry is “inactive”.

Substance TEESIDVDCVILVTNCHFRC displayed an amyloid nucleation score of 0.804 ± 0.18.

Take RSSSASR: the amyloid nucleation score result was “inactive”.

EASLSGGYTEYVGDFMRLVT: the amyloid nucleation score entry was “inactive”.

Take TWVVLG: the amyloid nucleation score entry was “inactive”.

Regarding CLYVSLS, the amyloid nucleation score result is “inactive”.

As for PEAVTCCNQKMTPVFIIGHP, the amyloid nucleation score entry was “inactive”.

Take SQFDAYPCKMFHVYKNYP: the amyloid nucleation score result was “inactive”.

In the case of FFNYIIMEIHFFALLSHRKH, the amyloid nucleation score result was “inactive”.

As to SGSGFQLLDGLTTRFSVVTF, the amyloid nucleation score entry is “inactive”.

In the case of TVIWLYIFRSQMPPVNPMRL, the amyloid nucleation score result was “inactive”.

EYGALSTFLRG gave an amyloid nucleation score of -0.337 ± 0.9.

As for GGNICPIRPLSRKEWELGRH, the amyloid nucleation score is -0.566 ± 1.4.

In the case of SPQLNCEANWKVFCWAGMDP, the amyloid nucleation score result is “inactive”.

Consider FGVSFKYFCVQEQLAKDSVA, for which the amyloid nucleation score result is “inactive”.

VEWMFTEMSVCLE: the amyloid nucleation score entry is “inactive”.

As for CSWRNRYCMLRRELFGAWRV, the amyloid nucleation score entry is “inactive”.

For LTHPCLMPFMLVVTRLYMAA, the amyloid nucleation score was -1.03 ± 1.8.

PFWKLKQKWVR came in with an amyloid nucleation score of -1.1 ± 1.9.

On to GVMGYSSYSLSAENTVYSPW, for which the amyloid nucleation score entry was “inactive”.

In turn, SYSLPMQKRCCIGIGEAGWN gave an amyloid nucleation score of -0.354 ± 0.82.

Turning to VKTKPFHLRYR, the amyloid nucleation score entry is “inactive”.

Regarding GDCFWSPDKNWIALEVFQTF, the amyloid nucleation score entry was “inactive”.

Take WDYILGFGHVSQRARMESFD: the amyloid nucleation score result was “inactive”.

For VIITSSTVLMFRFLEYRESQ, the amyloid nucleation score entry is “inactive”.

With FECMRELPRAPTKPGSWRHA, the amyloid nucleation score entry is “inactive”.

LYVVCKLSHRPHNAWEKRVP displayed an amyloid nucleation score of 0.315 ± 0.29.

For the substance MTSITVDYDNLDYRIAMITW, the amyloid nucleation score result is “inactive”.

SLYFDT: the amyloid nucleation score result is “inactive”.

For LTNGRNTYFLLSRYYFGTTS, the amyloid nucleation score result was “inactive”.

Consider SCLRGNTAKFFSKVSRVCDK, for which the amyloid nucleation score was found to be 0.133 ± 0.98.

Consider DSSSWSHL, for which the amyloid nucleation score was -0.291 ± 1.4.

Regarding FERDMVQ, the amyloid nucleation score entry is “inactive”.

Substance KFKFVLILSEDAKAT returned an amyloid nucleation score of 1.23 ± 0.17.

In the case of IDVMEYMLASYRVSWYRGLA, the amyloid nucleation score entry was “inactive”.

Consider FSVQAIWFVMSLNRFLGKGR, for which the amyloid nucleation score entry was “inactive”.

On to IIGWDDFLLVYNIKLYHNS, for which the amyloid nucleation score entry was “inactive”.

With SMSMDAYPQPPLNAMVLVSH, the amyloid nucleation score result was “inactive”.

On to YMSLVRTGKNTQMVVYRLVL, for which the amyloid nucleation score result is “inactive”.

As to GAWVTATWAFDAVLFCPGKM, the amyloid nucleation score entry is “inactive”.

On to ITRLNSMAMCYLIRFLS, for which the amyloid nucleation score result was “inactive”.

With HSSKSTGTYFGNMS, the amyloid nucleation score result is “inactive”.

For the substance LNSFSPGKNDCS, the amyloid nucleation score result is “inactive”.

Turning to EYDSYSKIYWHISLAVFILI, the amyloid nucleation score result was “inactive”.

Turning to SMDCFYLSHCRYRPRVI, the amyloid nucleation score entry is “inactive”.

For SGGLRLLGKSLLWTAVCTNT, the amyloid nucleation score result was “inactive”.

Substance EYNPWFDCWICSEVSATNNR had an amyloid nucleation score of 1.96 ± 0.077.

For HNCLVLVCDTCLSVYWNFSS, the amyloid nucleation score is 2.83 ± 0.052.

As for NATSQLVVGAVQ, the amyloid nucleation score result was “inactive”.

With IPYRVFRRTLNLVENMMCRM, the amyloid nucleation score entry was “inactive”.

MASIVFFCMPSETNFVV: the amyloid nucleation score entry was “inactive”.
